Measured values published in patent US20030040042A1, “Recombinant fibroblast growth factors” (published 2003).

Experiments:
[1] = target: FGF receptor on Balb/c 3T3 cells
[2] = target: FGF receptor on Balb/c 3T3 cells; test: competition with [125I]-bFGF on Balb/c 3T3 cells, no heparin
[3] = target: FGF receptor on Balb/c 3T3 cells; test: competition with [125I]-bFGF on Balb/c 3T3 cells, 1 ug/ml heparin

Chain of bFGF-C78/96S (P09038 134-288 C211S/C229S limits assumed): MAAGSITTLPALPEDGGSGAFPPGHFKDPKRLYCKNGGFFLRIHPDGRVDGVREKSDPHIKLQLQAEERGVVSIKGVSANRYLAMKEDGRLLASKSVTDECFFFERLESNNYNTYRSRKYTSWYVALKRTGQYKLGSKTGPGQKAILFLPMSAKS
Chain of KR128, 129ST (P09038 134-288 K261S/R262T limits assumed): as the sequence (P09038 134-288 C211S/C229S limits assumed) above, with S78C, S96C, K128S, R129T counted along it

Row | Substance | 3T3 Mito., 1 ug/ml heparin (ED50 wild type / ED50 analog x 100%) (% of wild type) [1] | 3T3 Mito., no heparin (ED50 wild type / ED50 analog x 100%) (% of wild type) [1] | FGF-Rc Comp. (ED50 analog / ED50 wild type FGF) [2] | FGF-Rc Comp. (ED50 analog / ED50 wild type FGF) [3]
1 | K95T (from UniProt P09038-2) (ligand) | 170 | 100 |  | 
2 | KR128, 129ST (from UniProt P09038-2) (ligand) |  | 185 | 2 | 0.8
3 | bFGF-C96S (from UniProt P09038-2) (ligand) |  |  | 0.3 | 0.8
4 | bFGF-D28K (from UniProt P09038-2) (ligand) |  |  | 1 | 1.3
5 | bFGF-D46A (from UniProt P09038-2) (ligand) |  |  | 0.5 | 
6 | bFGF-D50A (from UniProt P09038-2) (ligand) |  |  | 2.5 | 2.5
7 | bFGF-D99A (from UniProt P09038-2) (ligand) | 280 | 150 | 0.04 | 0.03
8 | bFGF-E100A (from UniProt P09038-2) (ligand) |  |  | 0.8 | 1
9 | bFGF-E105S (from UniProt P09038-2) (ligand) | 100 | 12.6 | 50 | 40
10 | bFGF-E108A (from UniProt P09038-2) (ligand) |  | 180 | 2.5 | 2.5
11 | bFGF-K35S (from UniProt P09038-2) (ligand) |  |  | 0.1 | 0.05
12 | bFGF-K55I (from UniProt P09038-2) (ligand) | 8 | 1 | 2 | 1.6

The next lines start with the values.

Row | 3T3 Mito., 1 ug/ml heparin (ED50 wild type / ED50 analog x 100%) (% of wild type) [1] | 3T3 Mito., no heparin (ED50 wild type / ED50 analog x 100%) (% of wild type) [1] | FGF-Rc Comp. (ED50 analog / ED50 wild type FGF) [2] | FGF-Rc Comp. (ED50 analog / ED50 wild type FGF) [3] | Substance
13 | 250 | 210 |  |  | R106T (from UniProt P09038-2) (ligand)
14 | 160 | 118 | 0.2 | 0.1 | bFGF-C78/96S (from UniProt P09038-2) (ligand)
15 |  |  | 0.3 | 0.25 | bFGF-C78S (from UniProt P09038-2) (ligand)
16 |  |  | 1.1 | 0.5 | bFGF-E100S (from UniProt P09038-2) (ligand)
17 |  | 315 | 0.4 | 0.4 | bFGF-H59N (from UniProt P09038-2) (ligand)
18 |  |  | 0.3 | 0.2 | bFGF-K27M (from UniProt P09038-2) (ligand)
